Assay results reported in paper PMC9482650, “Quantitative fragmentomics allow affinity mapping of interactomes” (Nature Communications, 2022).

Legend:
Experiment in all cases: holdup assay
Set-up in all cases: key: below the threshold = too weak to quantify, mostly under pKd 3.1 to 4
SCRIB_1, Q14160 = target: SCRIB_1, Q14160
GRIP2_6, Q9C0E4 = target: GRIP2_6, Q9C0E4
NHERF2_2, Q15599 = target: NHERF2_2, Q15599
DFNB31_3, Q9P202 = target: T1, DFNB31_3, Q9P202
T1 sequence (Q9P202 811-907, limits assumed, looked up): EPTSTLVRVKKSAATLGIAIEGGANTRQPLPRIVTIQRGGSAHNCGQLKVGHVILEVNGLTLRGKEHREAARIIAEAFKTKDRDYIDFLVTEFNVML

DLG2_2, Q15700 = target: DLG2_2, Q15700
GOPC, Q9HD26 = target: GOPC, Q9HD26
IL16_4, Q14005 = target: IL16_4, Q14005
MAGI2_3, Q86UL8 = target: MAGI2_3, Q86UL8
NHERF3_1, Q5T2W1 = target: T2, NHERF3_1, Q5T2W1
T2 sequence (Q5T2W1 4-100, limits assumed, looked up): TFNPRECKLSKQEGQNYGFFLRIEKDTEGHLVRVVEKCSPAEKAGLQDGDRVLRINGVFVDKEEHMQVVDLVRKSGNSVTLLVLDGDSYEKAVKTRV

MPDZ_10, O75970 = target: T3, MPDZ_10, O75970
T3 sequence (O75970 1624-1722, limits assumed, looked up): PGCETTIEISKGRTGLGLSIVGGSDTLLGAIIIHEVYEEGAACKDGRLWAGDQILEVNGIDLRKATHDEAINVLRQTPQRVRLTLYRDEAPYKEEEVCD

SNTA1, Q13424 = target: T4, SNTA1, Q13424
T4 sequence (Q13424 82-180, limits assumed, looked up): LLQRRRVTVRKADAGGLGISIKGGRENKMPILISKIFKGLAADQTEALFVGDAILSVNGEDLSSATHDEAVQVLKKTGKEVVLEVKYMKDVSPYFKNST

RAPGEF6, Q8TEU7 = target: T5, RAPGEF6, Q8TEU7
T5 sequence (Q8TEU7 525-625, limits assumed, looked up): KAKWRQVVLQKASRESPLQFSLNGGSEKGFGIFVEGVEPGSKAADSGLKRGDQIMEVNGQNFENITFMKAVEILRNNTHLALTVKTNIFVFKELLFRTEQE

DLG5_1, Q8TDM6 = target: DLG5_1, Q8TDM6
LIN7C, Q9NUP9 = target: T6, LIN7C, Q9NUP9
T6 sequence (Q9NUP9 88-185, limits assumed, looked up): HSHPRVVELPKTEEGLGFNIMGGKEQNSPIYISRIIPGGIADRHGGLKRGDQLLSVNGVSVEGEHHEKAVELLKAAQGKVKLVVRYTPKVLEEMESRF

Inadl_1, Q8NI35 = target: Inadl_1, Q8NI35
CASK, O14936 = target: CASK, O14936
FRMPD4, Q14CM0 = target: FRMPD4, Q14CM0
SNTG1, Q9NSN8 = target: T7, SNTG1, Q9NSN8
T7 sequence (Q9NSN8 52-150, limits assumed, looked up): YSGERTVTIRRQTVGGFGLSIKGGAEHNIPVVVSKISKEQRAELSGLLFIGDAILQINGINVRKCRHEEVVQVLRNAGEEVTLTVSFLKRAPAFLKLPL

FRMPD2_2, Q68DX3 = target: FRMPD2_2, Q68DX3
PARD3B_1, Q8TEW8 = target: T8, PARD3B_1, Q8TEW8
T8 sequence (Q8TEW8 196-299, limits assumed, looked up): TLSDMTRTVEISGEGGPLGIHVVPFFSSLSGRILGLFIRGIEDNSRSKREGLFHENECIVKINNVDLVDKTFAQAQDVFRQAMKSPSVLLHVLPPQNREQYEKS

DLG2_3, Q15700 = target: DLG2_3, Q15700
GRID2IP_1, A4D2P6 = target: GRID2IP_1, A4D2P6
MAGI2_2, Q86UL8 = target: MAGI2_2, Q86UL8
MPDZ_12, O75970 = target: T9, MPDZ_12, O75970
T9 sequence (O75970 1857-1958, limits assumed, looked up): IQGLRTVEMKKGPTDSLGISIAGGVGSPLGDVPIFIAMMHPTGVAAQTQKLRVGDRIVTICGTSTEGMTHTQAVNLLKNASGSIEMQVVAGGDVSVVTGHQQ

LDB3, O75112 = target: LDB3, O75112
GIPC2, Q8TF65 = target: GIPC2, Q8TF65
APBA3_1, O96018 = target: T10, APBA3_1, O96018
T10 sequence (O96018 389-490, limits assumed, looked up): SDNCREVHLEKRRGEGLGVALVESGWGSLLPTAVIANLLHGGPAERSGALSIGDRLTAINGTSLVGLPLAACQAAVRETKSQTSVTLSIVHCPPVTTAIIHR

TJP1_3, Q07157 = target: TJP1_3, Q07157
[1] = plain residues with an end cap or a label only (N-terminal biotin on a linker: ado-ado)
[2] = plain residues with an end cap or a label only (N-terminal biotin on a linker: ahx)

Measured: pKd

Chain of NHERF2_2, Q15599 (Q15599 142-238): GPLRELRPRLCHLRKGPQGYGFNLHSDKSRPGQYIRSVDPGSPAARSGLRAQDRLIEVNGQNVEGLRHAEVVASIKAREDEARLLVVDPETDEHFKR
Chain of FRMPD4, Q14CM0 (Q14CM0 67-160): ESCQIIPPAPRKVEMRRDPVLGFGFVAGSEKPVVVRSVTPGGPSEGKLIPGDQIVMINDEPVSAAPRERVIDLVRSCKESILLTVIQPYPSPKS
Chain of GRIP2_6, Q9C0E4 (Q9C0E4 648-740): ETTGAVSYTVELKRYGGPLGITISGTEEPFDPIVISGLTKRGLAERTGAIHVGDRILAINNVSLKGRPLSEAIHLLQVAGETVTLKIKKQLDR
Chain of GIPC2, Q8TF65 (Q8TF65 112-203): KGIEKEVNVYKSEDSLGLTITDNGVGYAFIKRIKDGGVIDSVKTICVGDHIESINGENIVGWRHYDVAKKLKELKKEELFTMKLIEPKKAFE
Chain of IL16_4, Q14005 (Q14005 1229-1329): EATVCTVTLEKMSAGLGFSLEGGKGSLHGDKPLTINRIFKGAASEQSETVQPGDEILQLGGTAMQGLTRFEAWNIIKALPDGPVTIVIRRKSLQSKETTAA
Chain of TJP1_3, Q07157 (Q07157 416-512): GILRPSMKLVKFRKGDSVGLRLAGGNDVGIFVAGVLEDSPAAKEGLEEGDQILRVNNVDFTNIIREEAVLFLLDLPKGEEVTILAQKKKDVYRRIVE
Chain of FRMPD2_2, Q68DX3 (Q68DX3 944-1038): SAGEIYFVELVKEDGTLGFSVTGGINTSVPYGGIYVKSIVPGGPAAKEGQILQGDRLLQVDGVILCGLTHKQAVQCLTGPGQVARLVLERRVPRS
Chain of DLG5_1, Q8TDM6 (Q8TDM6 617-713): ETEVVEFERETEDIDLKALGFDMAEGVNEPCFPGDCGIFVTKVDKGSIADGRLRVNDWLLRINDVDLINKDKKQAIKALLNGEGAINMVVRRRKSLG
Chain of MAGI2_3, Q86UL8 (Q86UL8 600-682): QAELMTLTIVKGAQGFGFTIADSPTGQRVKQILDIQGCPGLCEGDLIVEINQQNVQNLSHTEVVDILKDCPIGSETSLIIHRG
Chain of CASK, O14936 (O14936 487-570): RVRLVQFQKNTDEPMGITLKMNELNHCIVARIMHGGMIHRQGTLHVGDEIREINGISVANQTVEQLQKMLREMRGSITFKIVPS
Chain of SCRIB_1, Q14160 (Q14160 718-814): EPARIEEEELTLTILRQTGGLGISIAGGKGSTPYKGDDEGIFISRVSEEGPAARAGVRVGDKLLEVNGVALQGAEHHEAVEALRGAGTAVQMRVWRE
Chain of Inadl_1, Q8NI35 (Q8NI35 113-229): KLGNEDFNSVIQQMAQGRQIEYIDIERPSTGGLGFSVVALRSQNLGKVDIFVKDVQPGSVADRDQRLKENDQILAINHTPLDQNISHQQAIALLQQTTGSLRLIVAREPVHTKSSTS
Chain of GRID2IP_1, A4D2P6 (A4D2P6 1-87): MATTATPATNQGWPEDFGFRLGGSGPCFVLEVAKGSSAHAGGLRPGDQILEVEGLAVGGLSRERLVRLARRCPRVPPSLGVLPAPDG
Chain of MAGI2_2, Q86UL8 (Q86UL8 410-522): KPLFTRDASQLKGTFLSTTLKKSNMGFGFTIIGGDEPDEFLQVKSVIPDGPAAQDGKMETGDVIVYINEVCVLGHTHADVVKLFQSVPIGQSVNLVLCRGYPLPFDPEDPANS
Chain of LDB3, O75112 (O75112 1-94): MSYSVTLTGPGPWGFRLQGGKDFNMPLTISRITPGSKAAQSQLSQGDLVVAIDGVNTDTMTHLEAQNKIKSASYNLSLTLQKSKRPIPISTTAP

DGVNEKVSCV [HTR2A, P28223]
3.8: DLG2_3, Q15700; [1]
3.56: IL16_4, Q14005; [1]
4.66: SNTA1, Q13424; [1]
3.78: LIN7C, Q9NUP9; [1]
4.56: DLG2_2, Q15700; [1]
4.19: MPDZ_10, O75970; [1]
4.65: FRMPD2_2, Q68DX3; [1]
4.33: SNTG1, Q9NSN8; [1]
3.88: DFNB31_3, Q9P202; [1]
4.15: MAGI2_2, Q86UL8; [1]
4.72: MAGI2_3, Q86UL8; [1]
below the threshold: SCRIB_1, Q14160; [1] | GRIP2_6, Q9C0E4; [1] | NHERF2_2, Q15599; [1] | GOPC, Q9HD26; [1] | NHERF3_1, Q5T2W1; [1] | RAPGEF6, Q8TEU7; [1] | DLG5_1, Q8TDM6; [1] | Inadl_1, Q8NI35; [1] | CASK, O14936; [1] | FRMPD4, Q14CM0; [1] | PARD3B_1, Q8TEW8; [1] | GRID2IP_1, A4D2P6; [1] | MPDZ_12, O75970; [1] | LDB3, O75112; [1] | GIPC2, Q8TF65; [1] | APBA3_1, O96018; [1] | TJP1_3, Q07157; [1]

APSRKLNTEI [TIAM1, Q13009]
3.66: DLG2_3, Q15700; [2]
3.75: MPDZ_10, O75970; [2]
below the threshold: SCRIB_1, Q14160; [2] | GRIP2_6, Q9C0E4; [2] | NHERF2_2, Q15599; [2] | DFNB31_3, Q9P202; [2] | DLG2_2, Q15700; [2] | GOPC, Q9HD26; [2] | IL16_4, Q14005; [2] | MAGI2_3, Q86UL8; [2] | NHERF3_1, Q5T2W1; [2] | SNTA1, Q13424; [2] | RAPGEF6, Q8TEU7; [2] | DLG5_1, Q8TDM6; [2] | LIN7C, Q9NUP9; [2] | Inadl_1, Q8NI35; [2] | CASK, O14936; [2] | FRMPD4, Q14CM0; [2] | SNTG1, Q9NSN8; [2] | FRMPD2_2, Q68DX3; [2] | PARD3B_1, Q8TEW8; [2] | GRID2IP_1, A4D2P6; [2] | MAGI2_2, Q86UL8; [2] | MPDZ_12, O75970; [2] | LDB3, O75112; [2] | GIPC2, Q8TF65; [2] | APBA3_1, O96018; [2] | TJP1_3, Q07157; [2]

RSSGGDDFWF [KCNV1, Q6PIU1]
4.08: NHERF3_1, Q5T2W1; [1]
below the threshold: SCRIB_1, Q14160; [1] | GRIP2_6, Q9C0E4; [1] | DLG2_2, Q15700; [1] | GOPC, Q9HD26; [1] | IL16_4, Q14005; [1] | MAGI2_3, Q86UL8; [1] | MPDZ_10, O75970; [1] | SNTA1, Q13424; [1] | RAPGEF6, Q8TEU7; [1] | DLG5_1, Q8TDM6; [1] | Inadl_1, Q8NI35; [1] | CASK, O14936; [1] | SNTG1, Q9NSN8; [1] | FRMPD2_2, Q68DX3; [1] | GRID2IP_1, A4D2P6; [1] | MAGI2_2, Q86UL8; [1] | MPDZ_12, O75970; [1] | LDB3, O75112; [1] | GIPC2, Q8TF65; [1] | APBA3_1, O96018; [1] | TJP1_3, Q07157; [1]
4.67: FRMPD4, Q14CM0; [1]
3.6: DLG2_3, Q15700; [1]
4.48: PARD3B_1, Q8TEW8; [1]
4.02: DFNB31_3, Q9P202; [1]
4.1: LIN7C, Q9NUP9; [1]
4.69: NHERF2_2, Q15599; [1]
